In the experiment the target is Recombinant human cartilage oligomeric matrix protein (COMP) (human) (UniProt P49747). Nature of the experiment: atomic force microscopy.

Sequence of Recombinant human cartilage oligomeric matrix protein (COMP), P49747 21-757 (natural protein; other documents disagree on this pair) (P49747 21-757): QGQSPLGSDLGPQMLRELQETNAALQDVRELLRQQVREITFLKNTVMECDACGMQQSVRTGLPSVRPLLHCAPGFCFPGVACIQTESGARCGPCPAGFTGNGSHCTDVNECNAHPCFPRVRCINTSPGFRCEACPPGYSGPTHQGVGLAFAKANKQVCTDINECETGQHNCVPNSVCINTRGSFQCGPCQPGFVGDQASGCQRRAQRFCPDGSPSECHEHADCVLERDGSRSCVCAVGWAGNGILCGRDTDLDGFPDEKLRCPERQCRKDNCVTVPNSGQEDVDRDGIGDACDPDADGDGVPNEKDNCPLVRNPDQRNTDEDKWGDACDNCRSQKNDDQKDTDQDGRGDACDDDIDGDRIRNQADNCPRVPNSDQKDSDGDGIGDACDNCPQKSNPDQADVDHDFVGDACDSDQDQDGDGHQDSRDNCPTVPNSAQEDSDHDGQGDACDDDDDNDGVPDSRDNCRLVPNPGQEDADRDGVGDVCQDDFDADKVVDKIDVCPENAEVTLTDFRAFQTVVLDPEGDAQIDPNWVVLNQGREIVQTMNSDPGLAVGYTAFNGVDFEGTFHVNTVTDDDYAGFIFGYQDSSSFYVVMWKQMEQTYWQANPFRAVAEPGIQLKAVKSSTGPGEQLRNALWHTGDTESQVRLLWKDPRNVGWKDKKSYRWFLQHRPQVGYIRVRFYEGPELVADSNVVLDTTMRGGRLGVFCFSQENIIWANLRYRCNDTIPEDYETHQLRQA

For “Recombinant human cartilage oligomeric matrix protein (COMP), P49747 21-757 (natural protein; other documents disagree on this pair)”, the stoichiometry N turned out to be 5.

What is called stoichiometry N is the number of molecules, sites or subunits per partner or assembly.
